According to the Human Domainome abundance scans (Beltran et al. 2025):
± gives the uncertainty stated by the source.

B1: Tripartite motif-containing protein 44, residues 174 to 218; numbered along this chain, Q96DX7 (parent)
chain: VAKRKCPDHGLDLSTYCQEDRQLICVLCPVIGAHQGHQLSTLDEA
B2: Far upstream element-binding protein 2, residues 142 to 214; numbered along this chain, Q92945 (parent)
chain: RTSMTEEYRVPDGMVGLIIGRGGEQINKIQQDSGCKVQISPDSGGLPERSVSLTGAPESVQKAKMMLDDIVSR

Variants of: B1
Experiment: abundance fitness (aPCA) (normalised: wild type 0, dead -1); higher = more abundant; growth selection in yeast, the domain comes from the species named
Conditions: Homo sapiens

Abundance fitness: each site, then its substitutions
H37: Q -0.599 ± 0.043; F -0.931 ± 0.085; L -0.839 ± 0.039; E -0.565 ± 0.033; K -0.606 ± 0.042; W -0.95 ± 0.055; D -0.589 ± 0.042; Y -0.849 ± 0.071; S -0.678 ± 0.038; C -0.055 ± 0.033; I -1.01 ± 0.12; N -0.584 ± 0.063; R -0.677 ± 0.03; P -0.588 ± 0.04; M -0.676 ± 0.038; A -0.679 ± 0.032
L39: D -0.025 ± 0.035; C -0.06 ± 0.034; F -0.026 ± 0.05; P -0.032 ± 0.034; G -0.041 ± 0.025; K -0.06 ± 0.034; M 0.028 ± 0.03; Y -0.129 ± 0.05; Q 0.033 ± 0.032; S -0.021 ± 0.031; R -0.011 ± 0.027; E -0.021 ± 0.029; V -0.019 ± 0.027; I -0.024 ± 0.054; A -0.02 ± 0.029; N -0.043 ± 0.056; H 0.011 ± 0.05; W -0.035 ± 0.028; T 0.019 ± 0.033
H34: K -0.634 ± 0.057; E -0.647 ± 0.075; G -0.65 ± 0.029; Y -0.665 ± 0.067; L -0.925 ± 0.051; V -0.802 ± 0.037; W -0.895 ± 0.046; P -0.701 ± 0.046; C -0.107 ± 0.035; T -0.665 ± 0.042; S -0.689 ± 0.039; I -0.717 ± 0.067; A -0.673 ± 0.035; Q -0.605 ± 0.043; R -0.653 ± 0.03; D -0.575 ± 0.045; F -0.776 ± 0.063
G36: R -0.158 ± 0.026; Y -0.363 ± 0.067; C -0.172 ± 0.035; P -0.561 ± 0.044; L -0.266 ± 0.028; V -0.519 ± 0.03; H -0.033 ± 0.046; D -0.071 ± 0.047; K -0.128 ± 0.033; I -0.623 ± 0.13; Q -0.088 ± 0.032; W -0.409 ± 0.03; M -0.245 ± 0.031; N -0.007 ± 0.052; E -0.048 ± 0.029; A -0.131 ± 0.028; S -0.117 ± 0.03; F -0.193 ± 0.059
S40: P -0.044 ± 0.031; R -0.033 ± 0.026; M -0.103 ± 0.032; T -0.066 ± 0.029; C -0.027 ± 0.032; N -0.118 ± 0.048; H 0.022 ± 0.038; G 0.015 ± 0.025; F -0.108 ± 0.041; A -0.008 ± 0.027; D -0.032 ± 0.039; K -0.041 ± 0.032; Q 0.012 ± 0.038; I -0.079 ± 0.058; L -0.084 ± 0.029; V -0.083 ± 0.027; W -0.177 ± 0.027; E -0.012 ± 0.029
C28: H -0.994 ± 0.14; L -1.12 ± 0.059; W -1.14 ± 0.076; I -1.09 ± 0.11; V -1.06 ± 0.051; T -0.982 ± 0.066; N -0.759 ± 0.083; K -0.744 ± 0.062; P -0.882 ± 0.068; M -1.07 ± 0.082; Y -0.919 ± 0.082; R -1 ± 0.043
A33: K -0.006 ± 0.032; L -0.079 ± 0.027; W -0.148 ± 0.032; S 0.019 ± 0.029; C -0.048 ± 0.035; Y -0.094 ± 0.046; V -0.05 ± 0.028; D -0.068 ± 0.032; H -0.031 ± 0.039; I -0.031 ± 0.045; E -0.032 ± 0.031; N -0.014 ± 0.042
P29: N -0.064 ± 0.05; F -0.198 ± 0.047; T -0.021 ± 0.036; Q -0.071 ± 0.033; W -0.207 ± 0.03; D -0.077 ± 0.034; M -0.04 ± 0.034; Y -0.098 ± 0.056; G -0.083 ± 0.026; L -0.117 ± 0.029; K -0.004 ± 0.039; S 0.012 ± 0.031; C -0.2 ± 0.039; H -0.016 ± 0.038; V -0.133 ± 0.026; R -0.054 ± 0.027; E -0.031 ± 0.028; I -0.168 ± 0.049; A -0.097 ± 0.027
T41: M -0.065 ± 0.03; E 0.02 ± 0.028; F -0.254 ± 0.051; N 0.009 ± 0.042; S 0.032 ± 0.03; G 0.009 ± 0.025; Q 0.011 ± 0.037; A 0.024 ± 0.027; C -0.029 ± 0.032; V -0.038 ± 0.026; P 0.003 ± 0.033; I -0.11 ± 0.04; H -0.102 ± 0.049; W -0.131 ± 0.029; D 0.016 ± 0.034; L -0.087 ± 0.028; Y -0.098 ± 0.036
I31: L -0.02 ± 0.028; G -0.002 ± 0.026; H 0.029 ± 0.042; V 0.032 ± 0.027; M 0.016 ± 0.03; R 0.003 ± 0.026; Y -0.077 ± 0.043; K 0.067 ± 0.036; P -0.306 ± 0.038; E 0.053 ± 0.03; N 0.059 ± 0.037; W -0.13 ± 0.029; D 0.062 ± 0.04; A 0.022 ± 0.028; S 0.097 ± 0.028; F -0.11 ± 0.043; C -0.103 ± 0.031; T 0.052 ± 0.029; Q 0.028 ± 0.031
A45: R -0.006 ± 0.033; D 0.002 ± 0.05; K -0.046 ± 0.14; E -0.096 ± 0.092; M -0.029 ± 0.058; C -0.058 ± 0.078; S -0.243 ± 0.036; P 0.004 ± 0.049; T 0.021 ± 0.039; W -0.036 ± 0.05; L -0.093 ± 0.045; I 0.168 ± 0.087; Q 0.044 ± 0.38; V -0.022 ± 0.042
E44: A 0.009 ± 0.028; R -0.032 ± 0.027; W -0.14 ± 0.028; N -0.014 ± 0.052; Q -0.031 ± 0.038; I -0.132 ± 0.054; K -0.056 ± 0.037; G -0.002 ± 0.027; V -0.065 ± 0.029; C -0.055 ± 0.032; L -0.082 ± 0.031; F -0.123 ± 0.054; T 0.014 ± 0.03; D -0.053 ± 0.034; S -0.01 ± 0.031; Y -0.232 ± 0.046; M -0.058 ± 0.039; H 0.102 ± 0.068
L42: N 0.002 ± 0.047; G 0.05 ± 0.025; K 0.043 ± 0.035; C 0.014 ± 0.036; H 0.056 ± 0.049; D 0.028 ± 0.049; V 0.023 ± 0.027; M -0.003 ± 0.031; T 0.068 ± 0.033; S 0.033 ± 0.028; F -0.031 ± 0.053; R 0.024 ± 0.026; A 0.045 ± 0.027; Q 0.048 ± 0.033; E 0.035 ± 0.03; Y 0.017 ± 0.039; P 0.027 ± 0.035; W -0.034 ± 0.028
Q35: T -0.037 ± 0.029; K 0.002 ± 0.037; I -0.045 ± 0.036; G -0.152 ± 0.025; E -0.021 ± 0.028; L -0.105 ± 0.027; V -0.035 ± 0.027; W -0.186 ± 0.029; H 0.008 ± 0.036; F -0.162 ± 0.048; S -0.063 ± 0.027; D -0.143 ± 0.035; C -0.089 ± 0.031; M -0.031 ± 0.033; Y -0.067 ± 0.044; A -0.054 ± 0.027; R -0.1 ± 0.026; N -0.092 ± 0.044
Q38: D 0.036 ± 0.04; T 0.039 ± 0.033; R -0.006 ± 0.026; M 0 ± 0.032; L -0.061 ± 0.03; I -0.045 ± 0.047; Y -0.145 ± 0.044; G -0.009 ± 0.026; E 0.007 ± 0.028; W -0.255 ± 0.031; H 0.024 ± 0.045; V -0.071 ± 0.027; P -0.03 ± 0.032; F -0.079 ± 0.047; C -0.051 ± 0.037; A -0.032 ± 0.028; N 0.029 ± 0.035; K 0.03 ± 0.031
D43: R -0.072 ± 0.026; K -0.073 ± 0.037; A -0.036 ± 0.027; E 0.023 ± 0.028; S -0.026 ± 0.029; F -0.157 ± 0.034; V -0.056 ± 0.027; L -0.107 ± 0.028; N -0.026 ± 0.044; T -0.042 ± 0.029; H -0.058 ± 0.044; Q -0.035 ± 0.032; C -0.042 ± 0.033; I -0.132 ± 0.041; G -0.013 ± 0.026; P 0 ± 0.029; Y -0.112 ± 0.045; M -0.072 ± 0.035; W -0.211 ± 0.029
V30: Q 0.045 ± 0.031; W -0.159 ± 0.028; C -0.073 ± 0.039; H -0.046 ± 0.05; P -0.369 ± 0.032; A -0.011 ± 0.028; F -0.133 ± 0.039; E 0.013 ± 0.03; T 0.051 ± 0.031; N -0.057 ± 0.05; D 0.001 ± 0.047; K 0.096 ± 0.03; G -0.144 ± 0.026; R 0.019 ± 0.026; L -0.076 ± 0.027; S 0.005 ± 0.028; M -0.008 ± 0.034; I -0.032 ± 0.046
G32: N -0.465 ± 0.055; Y -0.743 ± 0.1; Q -0.491 ± 0.046; S -0.393 ± 0.036; E -0.355 ± 0.03; L -0.775 ± 0.042; D -0.417 ± 0.035; A -0.425 ± 0.028; V -0.674 ± 0.033; W -0.778 ± 0.038; K -0.261 ± 0.043; I -0.757 ± 0.1; C -0.575 ± 0.042; M -0.663 ± 0.053; R -0.492 ± 0.029; F -0.871 ± 0.14; H -0.49 ± 0.046; P -0.22 ± 0.037

Variants of: B2
Experiment: as above
Conditions: Homo sapiens

Abundance fitness: each site, then its substitutions
T2: E -0.025 ± 0.05; D 0.003 ± 0.078; C -0.198 ± 0.08; A -0.13 ± 0.045; K -0.007 ± 0.065; L -0.079 ± 0.046; I -0.04 ± 0.076; M 0.104 ± 0.053; H -0.138 ± 0.088; G -0.04 ± 0.044
R1: G -0.071 ± 0.037; F -0.297 ± 0.19; K 0.166 ± 0.063; L -0.071 ± 0.097; Q 0.036 ± 0.11; E 0.075 ± 0.065; W -0.143 ± 0.054; D 0.017 ± 0.079; P -0.27 ± 0.11; I 0.195 ± 0.11; Y -0.195 ± 0.13; S -0.072 ± 0.053; H -0.256 ± 0.2; N 0.101 ± 0.081; A -0.205 ± 0.068; M 0.19 ± 0.07
